Reference: US20200199214A1 (Hoffmann-La Roche, published 2020)

What was measured:
[1] = target: T1, cynomolgus IL-1 beta (Sino Biological 90010-CNAE) (cynomolgus, UniProt P79182 117-268); test: SPR, Fab captured via anti-Fab antibody, cynomolgus IL-1beta injected, 1:1 Langmuir fit
T1 sequence (looked up): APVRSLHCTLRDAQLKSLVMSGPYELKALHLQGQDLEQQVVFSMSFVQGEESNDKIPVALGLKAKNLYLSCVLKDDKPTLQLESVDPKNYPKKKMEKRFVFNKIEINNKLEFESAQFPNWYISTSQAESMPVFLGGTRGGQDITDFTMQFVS
Method: An anti-Fab capturing antibody (GE Healthcare 28958325) was immobilized to a Series S Sensor Chip C1 (GE Healthcare 29104990) using standard amine coupling chemistry resulting in a surface density of approximately 500 resonance units (RU). The bispecific anti-VEGF/anti-IL-1beta Fab fragment was captured to the surface with resulting capture levels of approximately 20 RU. A dilution series ranging from 0.74 to 60 nM (1:3 dilution) of either human IL-1 beta (PeproTech 200-01B) or cynomolgus IL-1 beta (Sino Biological 90010-CNAE) was injected for 90 s, dissociation was monitored for at least 600 s at a flow rate of 30 μl/min. The surface was regenerated by two consecutive injections of 10 mM Glycine pH 2.1 for 60 s each. Bulk refractive index differences were corrected by subtracting blank injections and by subtracting the response obtained from the control flow cell without captured bispecific anti-VEGF/anti-IL-1beta Fab fragment. Curve fitting was performed using the 1:1 Langmuir binding model within the Biacore evaluation software.
(§1) Binding kinetics to VEGF and IL-1beta for the candidate antibodies were assessed as described in Example 3 using the indicated bispecific anti-VEGF/anti-IL-1beta Fab fragments (amino acid sequence as illustrated in Table 3). For comparison, antigen binding kinetics of prior art anti-VEGF/anti-IL-1beta antibody 0032, a full length IgG antibody, as disclosed in WO2016/075034 are depicted.

[2] = target: T2, Human VEGF121-His (human, UniProt P15692-9 27-147); test: SPR, VEGF121-His captured via anti-His antibody, Fab injected, single cycle kinetics, 1:1 Langmuir fit
T2 construct: not shown: His tag
T2 sequence (looked up): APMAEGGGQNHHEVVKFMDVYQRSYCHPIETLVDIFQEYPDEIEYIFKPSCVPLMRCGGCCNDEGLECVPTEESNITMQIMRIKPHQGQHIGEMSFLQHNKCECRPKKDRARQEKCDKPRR
Method: An anti-His capturing antibody (GE Healthcare 28995056) was immobilized to a Series S Sensor Chip C1 (GE Healthcare 29104990) using standard amine coupling chemistry resulting in a surface density of approximately 500 resonance units (RU). As running and dilution buffer, HBS-P+(10 mM HEPES, 150 mM NaCl pH 7.4, 0.05% Surfactant P20) was used. Human VEGF121-His was captured to the surface with resulting ligand densities of approximately 10 and 20 RU, respectively. A dilution series of the bispecific anti-VEGF/anti-IL-1beta Fab fragment (1.2-100 nM, 1:3 dilution) was successively injected for 90 s each, dissociation was monitored for 3600 s at a flow rate of 30 μl/min (single cycle kinetics). The surface was regenerated by injecting 10 mM Glycine pH 1.5 for 60 s. Bulk refractive index differences were corrected by subtracting blank injections and by subtracting the response obtained from the control flow cell without captured human VEGF121. Curve fitting was performed using the 1:1 Langmuir binding model within the Biacore evaluation software. To provide more robust fitting, the Multiple Rmax option was chosen for global fitting using both ligand densities.
as §1

[3] = target: T3, human IL-1 beta (PeproTech 200-01B) (human, UniProt P01584 117-269); test: SPR competition: Fab preincubated with 50 nM IL-1beta, injected over immobilised IL-1bR1 (competitor); in presence of VEGF
T3 construct: As printed it covers only the N-terminal part of the precursor, so it was not used; also called huIL-1 beta; IL1β
Method: (§2) As running and dilution buffer, HBS-P+(10 mM HEPES, 150 mM NaCl pH 7.4, 0.05% Surfactant P20) was used.
(§3) For assessing VEGF-receptor binding inhibition, a final concentration of 200 nM of R07200394 or 400 nM antibody 0032 was preincubated with 50 nM VEGF121. For assessing IL-1beta-receptor binding inhibition, a final concentration of 200 nM of R07200394 or 200 nM antibody 0032 was with preincubated with 50 nM IL-1beta. Samples were diluted (1:2) in the corresponding 50 nM VEGF121 or IL-1beta solution.
(§4) The antibody/ligand mixtures were injected onto the VEGFR2 or IL-1R1 surface for 60 s at a flow rate of 5 μl/min. After a dissociation phase for 60 s, the VEGFR2 surface was regenerated by injecting 5 mM NaOH for 60 s, whereas the IL-1R1 surface was regenerated by injecting 10 mM Glycine pH 3.0 followed by 5 mM NaOH for 60 s each. Bulk refractive index differences were corrected by subtracting blank injections and by subtracting the response obtained from the blank control flow cell. For evaluation, the binding response 5 seconds after inject end was taken. The derived response in RU was transformed to a binding response relative to the initial signal corresponding to the ligand(s) without antibody. IC50 values were calculated using a 4 parameter logistic model (XLfit, ID Business Solutions Ltd.)

[4] = target: T3, human IL-1 beta (PeproTech 200-01B); test: SPR competition: Fab (from 200 nM, 1:2 dilutions) preincubated with 50 nM IL-1beta, injected over immobilised IL-1bR1 (competitor); without VEGF
Method: as §2, §3, §4

Kd [1]: 0.027 nM
koff [1]: 7.94e-05 s⁻¹
kon [1]: 2.97e+06 M⁻¹ s⁻¹
t½ [1]: 2.43 h
Kd [2]: 0.006 nM
koff [2]: 1.63e-05 s⁻¹
kon [2]: 2.85e+06 M⁻¹ s⁻¹
t½ [2]: 11.8 h
IC50 [3]: 24 nM
IC50 [4]: 22 nM
B1: bispecific anti-VEGF/anti-IL-1beta Fab fragment RO7200394 (Fab, V domains shown)
VH: DEQLVESGGGLVKPGGSLRLSCAAEGMVFKWNDMSWVRQAPGKGLEWVGSISKKGDHKYLNTKFIGRFTISRDNEKDTLYLQMNSLRAEDTAVYYCAKDVGFFDIWGQGTLVTVSS
VL: AIYMHQEPSSLSASVGDRVTITCHGSYWLSSLVAWYQQKPGKAPKLLIYDAKYKHLGVPSRFSGSKEDQEFTLTISSLQPEDFATYYCQQYRYHPYTFGHGTKVEIKR
notes: same variable domains as 1HVL12.85; also called R07200394
